Assay [1] deals with T1, human PD-1^ECD-hFc protein (Immunogen A) (human, UniProt Q15116 25-167).
T1 construct: Biotinylated for the Octet assay; also called PD-1-hFc; hPD-1^ECD-hFc; not shown: human IgG Fc fragment (hFc)
Description: ELISA, coated human PD-1ECD-hFc; antibody 1 nM. The method, then:
(§1) 100 uL of the diluted recombinant proteins were added to each well of 96-well plate. The plates were sealed with plastic film and incubated at 4° C. overnight. The plates were washed twice with wash buffer (PBS+0.01% (v/v) Tween20), and incubated with blocking buffer (PBS+0.01% (v/v) Tween20+1% (w/w) BSA) at room temperature for 2 hours. The blocking buffer was aspirated away, and 100 uL of purified anti-PD-1 antibodies were added to each well and incubated for 2 hours at 37° C. The plates were washed three times with wash buffer (PBS+0.01% (v/v) Tween20). HRP-conjugated secondary antibody (Sigma) was added to each well and incubated for 2 hours at 37° C. After the plates were washed three times with wash buffer, 100 uL TMB substrate was added to each well and incubated for 30 minutes at room temperature. 100 uL stop solution (0.1N HCl) was added to each well to stop the reaction. The absorbance at 450 nm was measured with an ELISA plate reader (384plus SpectraMax, Molecular Devices).

Assay [2] addresses T2, cyno PD-1^ECD-hFc protein (cyno monkey, UniProt B0LAJ3 25-167).
T2 construct: Prepared by the method for Immunogen A; also called Cyno Monkey PD-1^ECD-hFc; cyno monkey PD-1-hFc; not shown: human IgG Fc fragment (hFc) and its junction to the ECD
Put plainly: ELISA, coated cyno PD-1ECD-hFc; antibody 10 nM. Here is the method:
as §1
For orientation: ELISA stands for enzyme-linked immunosorbent assay.

Assay [3] addresses T2, cyno PD-1^ECD-hFc protein. Put plainly: ELISA, coated cyno PD-1ECD-hFc; antibody 0.1 nM. Here is the method: as §1
The target in assay [4] is T2, cyno PD-1^ECD-hFc protein. Put plainly: ELISA, coated cyno PD-1ECD-hFc; antibody 100 nM. Here is the method: as §1
Assay [5] addresses T1, human PD-1^ECD-hFc protein (Immunogen A). Description: ELISA, coated human PD-1ECD-hFc; antibody 0.1 nM. Here is the method:
as §1

Assay [6] has the same target. Description: ELISA, coated human PD-1ECD-hFc; antibody 100 nM. The method, then: as §1
Assay [7] has the same target. Description: ELISA, coated human PD-1ECD-hFc; antibody 0.01 nM. The method, then: as §1
The target of assay [8] is T3, full length human PD-1 on cells (human, UniProt Q15116 25-288).
T3 construct: Also used here for PD-1 on human T cells/PBMC; also called CHO-K1-hPD-1; hPD-1
Put plainly: flow cytometry, CHO-K1-hPD-1 cells; antibody 10 nM. From the text: CHO-K1 cells were stably transfected with pIRES plasmid containing the nucleic acid sequence encoding full length human PD-1 (see Example 2, step 2) to generate CHO-K1 cells stably expressing human PD-1 (herein referred to as CHO-K1-hPD-1 cells). Other CHO-K1 were stably transfected with pIRES plasmid containing the nucleic acid sequence encoding full length cyno PD-1 to generate CHO-K1 cells stably expressing cyno PD-1 (herein referred to as CHO-K1-cPD-1 cells). CHO-K1-hPD-1 and CHO-K1-cPD-1 cells were cultured and expanded in T-75 culture flasks to 90% confluence. The culture media was aspirated, and the cells were washed twice with HBSS (Hanks Balanced Salt Solution, Invitrogen). The cells were treated with enzyme-free cell dissociation solution (Versene solution, Invitrogen) and collected. The cells were then washed twice with HBSS, cell counts were determined, and cells were resuspended with HBSS at 2×10⁶ cells/mL. Goat serum was added to the cell suspension to a final concentration of 1%, and the cells were blocked for 30 minutes on ice and then washed twice with HBSS. The cells were collected after centrifugation and resuspended in FACS buffer (HBSS+1% BSA, v/v) at 2×10⁶ cells/mL. 100 uL of the cell suspension were then added to each well of 96-well plate. 100 uL of purified anti-PD-1 antibodies from Example 2 were added to each well of the 96-well plate and incubated for 2 hours on ice. […] The samples were washed three times with FACS buffer, and 100 uL fixation buffer (4% paraformaldehyde v/v) were added to each well and incubated for 10 minutes. The cells were then washed twice with FACS buffer and resuspended in 100 uL FACS buffer. The mean fluorescence intensity (MFI) was determined using FACS Calibur (BD), and the results are shown in FIGS. 7-8 and in Tables 10-11.
(In general: Flow cytometry measures light scatter and fluorescence of single cells or particles in a stream.)

The target of assay [9] is CD28 (human, UniProt P10747 19-152). Put plainly: ELISA, coated protein 1 ug/mL; antibody concentration not stated. The method, then:
as §1

In assay [10] the target is T1, human PD-1^ECD-hFc protein (Immunogen A). Described as above. The method, then: as §1
For assay [11] the target is unchanged. Put plainly: protein-based receptor-ligand blocking ELISA: coated PD-1ECD-hFc, blocked ligand biotinylated PD-L1ECD, streptavidin-HRP. Here is the method: Purified PD-1^ECD-hFc (Example 2) was diluted with PBS to a final concentration of 1.0 ug/mL, and 100 uL diluted PD-1^ECD-hFc were added to each well of a 96-well plate that was then sealed with plastic film and incubated at 4° C. overnight. The plate was washed twice with wash buffer (PBS+0.01% (v/v) Tween 20) and incubated with blocking buffer (PBS+[…]) at room temperature for 2 hours. The blocking buffer was aspirated, and 50 uL purified anti-PD-1 antibodies from Example 2 were added to each well of 96-well plate. […] The plate was washed three times with wash buffer (PBS+0.01% (v/v) Tween 20). 100 uL HRP-conjugated streptavidin (Sigma) were then added to each well and incubated at 37° C. for 2 hours. The plate was then washed three times with wash buffer, and 100 uL TMB substrate were added to each well. After 30 minutes of incubation at room temperature, the reaction was stopped by adding 100 uL stop solution (0.1N HCl). The absorbance at OD450 nm was measured with an ELISA plate reader (384plus SpectraMax, Molecular Devices).

T2 sequence (B0LAJ3 entry or part of it limits assumed): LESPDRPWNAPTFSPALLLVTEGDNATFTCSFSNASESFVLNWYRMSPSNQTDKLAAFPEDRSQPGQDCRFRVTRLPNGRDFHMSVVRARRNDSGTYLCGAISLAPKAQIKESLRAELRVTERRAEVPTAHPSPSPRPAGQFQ
Sequence of CD28 (P10747 19-152 limits assumed): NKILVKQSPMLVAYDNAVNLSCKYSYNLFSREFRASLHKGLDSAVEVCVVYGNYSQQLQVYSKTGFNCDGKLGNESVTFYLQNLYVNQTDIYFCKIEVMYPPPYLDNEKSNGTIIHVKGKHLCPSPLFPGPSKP
T3 sequence (Q15116 25-288 limits assumed): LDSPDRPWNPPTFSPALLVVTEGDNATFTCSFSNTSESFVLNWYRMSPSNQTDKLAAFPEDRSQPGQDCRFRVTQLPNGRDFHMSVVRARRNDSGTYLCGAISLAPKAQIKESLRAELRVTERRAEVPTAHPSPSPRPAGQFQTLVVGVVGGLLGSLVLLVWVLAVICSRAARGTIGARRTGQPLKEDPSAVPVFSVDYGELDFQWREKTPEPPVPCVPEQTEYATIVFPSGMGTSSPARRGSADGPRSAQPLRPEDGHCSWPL
T1 sequence (Q15116 25-167): as the sequence (B0LAJ3 entry or part of it limits assumed) above, with E2D, A10P, L19V, A35T, R75Q counted along it

B1: chimeric anti-PD-1 antibody 21G8F11 (antibody, V domains shown)
VH: EVQLLESGGGLAQPGGSLRLSCAASGFSFNTYLMHWVRQAPGKGLEWVSAISGGGGNTYYADSVKGRFTISRDNSKNTLYLQMNSLRAEDTAVYYCAKENRIPVAPFDYWGQGTLVTVSS
VL: DIQMTQSPSTLSASVGDRVTITCRASQSISTWLAWYQQKPGKAPKLLIYKASSLESGVPSRFSGSGSGTEFTLTISSLQPDDLATYYCQQYNSFSWTFGQGTKVEIK
notes: Purified from hybridoma of Harbour H2L2 mice: human variable regions, rat constant regions
For B1, the OD450 nm in [1] was found to be 2.83; in [2], 2.63; in [3], 0.972; in [4] it was 2.61; in [5], 1.77; in assay [6], 2.73. Further, the results for the OD450 nm in assay [7], in assay [9] and in assay [10] were 0.669, 0.144 and 2.25, respectively. In assay [8], this molecule returned a Mean fluorescence intensity of 696. The “IC50 (read off the curve)” value in [11] was approximately 0.4 µg/mL.

B2: chimeric anti-PD-1 antibody 76G5B3 (antibody, V domains shown)
VH: QVQLVESGGGVVQPGRSLRLSCAASGFTFSDYGFHWVRQAPGKGLEWVAVIWYDGSNEYYTDSVKGRFTISRDNSKNTLYLQMNSLRAEDTAMYFCVVNPFDYWGQGTLVTVSS
VL: DIQMTQSPSSLSAFVGDRVTITCRASQGINHYLAWYQQKPGKAPNLLILAASTLLSGVPSRFGGRGSGTDFTLIISSLQPEDVATYYCQKYDSAPYTFGQGTKLEIK
notes: as for B1
With B2, the OD450 nm is 3.07 in [1]; 1.62 in assay [2]; 0.56 in assay [3]; 1.89 in assay [4]; 2.43 in assay [5]; 3.05 in assay [6]. Moreover, the figures for the OD450 nm in assay [7], in [9] and in assay [10] were 0.65, 0.061 and 2.76, respectively. Besides, in assay [8], the Mean fluorescence intensity turned out to be 435. The “IC50 (read off the curve)” value in assay [11] is approximately 0.9 nM.

B3: chimeric anti-PD-1 antibody 32B5C7 (antibody, V domains shown)
VH: EVQLLESGGGLVQPGGSLRLSCAASGFTFSSYAMSWVRQAPGKGLEWVSTISGSGGTTYYADSVKGRFTISRDNSKNTLYLQMNSLRAEDTAVYYCTLTGDPDYWGQGTLVTVSS
VL: EIVLTQSPATLSLSPGERATLSCRASQSVSSYLAWYQQKPGQAPRLLIYDASKRATGIPARFSGSGSGTDFTLTISSLEPEDFAVYYCQQRNNWPLTFGGGTKVEIK
notes: as for B1
As for B3, the OD450 nm in assay [1] worked out at 3.02; in [2], 1.51; in assay [3], 0.29; in assay [4], 1.66; in assay [5], 2.11; in assay [6] it was 3.05. The OD450 nm in assay [7] came to 0.55; in assay [9] it was 0.062; in assay [10] it was 2.69. In assay [8], this molecule showed a Mean fluorescence intensity of 156. Besides, the “IC50 (read off the curve)” value in assay [11] is approximately 1 nM.

Source of the values: patent US20180214548A1 (SHANGHAI YUNYI HEALTHCARE AND TECHNOLOGY, published 2018).
